Values joined by “and” are separate entries in the source; they are usually repeats but may differ in a detail not shown here. Equal values may be shown once.

The target of assay [1] is T1, calmodulin 2 (CaM2), purified recombinant protein (M. truncatula). The experiment in a line: ITC; 5 mM CaCl2.
The target in assay [2] is T1, calmodulin 2 (CaM2), purified …. Put plainly: BLI; 20 mM CaCl2.
Assay [3] shares this target. The experiment in a line: BLI; 20 mM CaCl2. The source holds these as a separate data set.

On to AACFIQVAWRRTIQEKKG [CNGC15b-IQ peptide], for which the Kd in assay [1] is 1.39 µM.

B1: His6-MBP:CtermCNGC15b (domain or fragment)
chain: GNMQTYLQSTTVRLEEWRVKRTDTEQWMHHRQLPQELRQSVRKYDQYKWIATRGVDEESLLRGLPLDLRRDIKRHLCLELVRRVPLFDAMDERMLDAICERLKPALCTENTYLVREGDPVNEMLFIIRGNLDSYTTDGGRTGFFNSCRIGPGDFCGEELLTWALDPRPTMVIPSSTRTVKAISEVEAFALIAEDLKFVASQFRRLHSKQLRNKLRFHSHQWRTWAACFIQVAWRRTIQEKKGSC
As for B1, in assay [2], the Kd is 59 µM. The koff in assay [3] was 0.43 s⁻¹.

B2: His6-MBP:CtermCNGC15a (domain or fragment)
chain: GNMQTYLQSTTIRLEEWRIRRTDTERWMHHRQLPHYLKENVRRHDQFRWVATRGVDEEAILRDLPVDLRRDIKRHLCLNLVRQVPLFDQMDDRMLDAICERLKPTLCTPGTCIVREGDPVDEMLFIVRGRLDSCTTNGGRTGFFNTCRIGSGDFCGEELLPWALDPRPTAVLPSSTRTVRAITEVEAFALIAEDLKFVAAQFRRLHSKQLRQTFRFYSHQWRTWAACFIQAAWFRYKRMKETNEVKEKENLMMMSNVKYYGNDDSQYFSAPLQVPKGSSYSMYSGKLVGSLRRGRSMRYGSELDMLGTLRKPIEPDFNDDGD
For B2, the Kd in assay [2] turned out to be 526 µM. The koff in assay [3] came to 0.77 s⁻¹.

B3: His6-MBP:CtermCNGC15c (domain or fragment)
chain: LIGNMQTYLQSITVRLEEWRVKRTDTEQWMHHRQLPPELRESIRKYNQYKWVATRGVEEEDLLKGLPLDLRREIKRHLCLELVRGVPLFDQMDERMLDAICERLKPALCTEGTYLVREGDPVNEMLFIIRGHLDSYTTNGGRDGFFNSCRIGPGDFCGEELLTWALDPRPSVILPSSTRTVKAFSEVEAFALIAEDLKFVASQFRRLHSKQLRHKFRFYSHQWRTWAACFIQAAWRRHKKRKEAAELRAKENLVAASEAENEIAKKYGKGFVVYGTRVARSTRKGVNMHSGTNSGVVSSLQKPTEPDFSDE
On to B3, for which the Kd in assay [2] came to 14.6 µM. Besides, in assay [3], the koff came out at 0.077 s⁻¹.

Consider AACFIQAAWRRHKKRKEA [CNGC15c-IQ peptide], for which the Kd in assay [1] was 0.644 µM and 0.64 µM.
